Experimental data as given in paper PMC8000039, “Toxin-Activating Stapled Peptides Discovered by Structural Analysis Were Identified as New Therapeutic Candidates That Trigger Antibacterial Activity against Mycobacterium tuberculosis in the Mycobacterium smegmatis Model” (Microorganisms, 2021).

Assays:
[1] = system: VapBC26-expressing M. smegmatis mc2155 cells; type: cell-based, Mycobacterium smegmatis
[2] = CD spectroscopy, helicity calculated by CDNN software; type: physicochemical; conditions: 50 μM peptide, 10 mM potassium phosphate pH 7, 100 mM ammonium sulfate, 20 °C, average of three scans
Protocol: CD measurements were conducted at 20 °C using a Chirascan Plus spectropolarimeter (Applied Photophysics, Leatherhead, UK) in a cuvette with a 1 mm path length. The peptide samples were prepared at 50 μM in buffer consisting of 10 mM potassium phosphate (pH 7) and 100 mM ammonium sulfate. CD scans were taken from 180 nm to 260 nm at a speed of 100 nm/min with a 1 nm bandwidth. The helicity of each peptide was calculated by CDNN software.

[3] = system: VapBC26-harboring M. smegmatis; test: Confocal microscopy of FITC-labeled peptides (cell permeability); type: cell-based, Mycobacterium smegmatis; conditions: FITC-labeled peptide 10 μM, 1 h, 37 °C, trypsin to degrade surface-bound and extracellular peptide, two independent experiments
Protocol: Confocal microscopy was used to assess the permeability of M. smegmatis using FITC-labeled peptides. Cultures of M. smegmatis grown in complete 7H9 medium to mid-logarithmic phase (OD600 0.3–0.5) were diluted 5-fold with Muller-Hinton broth (BD Biosciences, Franklin Lakes, NJ, USA). Diluted cell suspensions were aliquoted into Eppendorf tubes and treated with 10 μM peptide. After 1 h of incubation at 37 °C and 100 rpm, the cell suspensions were washed with PBS. If successful internalization of FITC-labeled peptides is achieved, then fluorescence will be detected in the images. Surface-bound peptides and extracellular peptides were degraded by trypsin, and thus remained fluorescence signals in the images indicate the indeed internalization of peptide. Images were acquired on a TCS8 confocal scope (Leica Microsystems, Wetzlar, Germany) with a 63× oil immersion objective.

## VapC26 α4_54–65: linear α4-mimicking peptide of VapC26 (residues 54–65), from the authors' previous study (DAELAVLRELAG; UniProt O53779 54-65, looked up, fragment)
[1]
  effect on cell growth (OD600) compared with control cells: only a slight effect
[2]
  Helicity (α-helical propensity): 20.8%
[3]
  cell penetration / uptake, fluorescence signal inside the cells: barely observed
